{
  "source": "paper PMC5372681",
  "about": "“Study of Different Variants of Mo Enzyme crARC and the Interaction with Its Partners crCytb5-R and crCytb5-1” (International Journal of Molecular Sciences, 2017)",
  "key": {"[1]": {"target": "crCytb5-R, Chlamydomonas reinhardtii NADH cytochrome b5 reductase (Chlamydomonas reinhardtii)"}, "[2]": {"target": "crARC variant R276A (Chlamydomonas reinhardtii)", "experiment": "SEC; each protein loaded alone; Superdex 200 10/300 GL, 50 mM phosphate buffer pH 7.2, 0.15 M NaCl, 0.75 mL/min; Mw from a calibration curve of marker proteins"}, "[3]": {"target": "crCytb5-1, Chlamydomonas reinhardtii cytochrome b5-1 (Chlamydomonas reinhardtii)", "experiment": "SEC; each protein loaded alone; Superdex 200 10/300 GL, 50 mM phosphate buffer pH 7.2, 0.15 M NaCl, 0.75 mL/min; Mw from a calibration curve of marker proteins"}, "[4]": {"target": "crARC, Chlamydomonas reinhardtii mARC (mitochondrial Amidoxime Reducing Component), wild type (Chlamydomonas reinhardtii)", "experiment": "SEC; two proteins incubated together for 10 min, then loaded; 15 pmol of each; Superdex 200 10/300 GL, 50 mM phosphate buffer pH 7.2, 0.15 M NaCl, 0.75 mL/min; peak fractions checked by SDS-PAGE"}, "[5]": {"target": "crCytb5-R, Chlamydomonas reinhardtii NADH cytochrome b5 reductase (Chlamydomonas reinhardtii)", "experiment": "SEC; two proteins incubated together for 10 min, then loaded; 15 pmol of each; Superdex 200 10/300 GL, 50 mM phosphate buffer pH 7.2, 0.15 M NaCl, 0.75 mL/min; peak fractions checked by SDS-PAGE"}, "[6]": {"target": "crARC variant F210A (Chlamydomonas reinhardtii)", "experiment": "SEC; each protein loaded alone; Superdex 200 10/300 GL, 50 mM phosphate buffer pH 7.2, 0.15 M NaCl, 0.75 mL/min; Mw from a calibration curve of marker proteins"}, "[7]": {"target": "crCytb5-1, Chlamydomonas reinhardtii cytochrome b5-1 (Chlamydomonas reinhardtii)"}},
  "data": [
    {"substance": "crARC variant E267A (enzyme; the values are: NADH-dependent HAP reduction activity (% of wild type))", "values": [
      {"measurement": "NADH-dependent HAP reduction activity of the crARC variant with crCytb5-1 and crCytb5-R", "setting": "[1]", "result": 25, "unit": "%"}
    ]},
    {"substance": "crARC variant R276A (enzyme)", "values": [
      {"measurement": "stoichiometry N", "setting": "[2]", "result": 30, "unit": "crARC units"}
    ]},
    {"substance": "crCytb5-1, Chlamydomonas reinhardtii cytochrome b5-1 (natural protein)", "values": [
      {"measurement": "stoichiometry N", "setting": "[3]", "result": 2},
      {"measurement": "stoichiometry N (crCytb5-1 per crARC)", "setting": "[4]", "result": 2},
      {"measurement": "stoichiometry N (crCytb5-1 per crCytb5-R)", "setting": "[5]", "result": 4}
    ]},
    {"substance": "crARC variant F210A (enzyme)", "values": [
      {"measurement": "times more oligomeric forms than the wild type", "setting": "[6]", "result": 10, "unit": "times"}
    ]},
    {"substance": "crARC variant E267A (enzyme)", "values": [
      {"measurement": "NADH-dependent HAP reduction activity of the crARC variant with crCytb5-1 and crCytb5-R (% of the wild type activity)", "setting": "[7]", "result": 25}
    ]}
  ]
}
